Source: patent US20140051120A1 (Genentech, published 2014)
Changes are numbered by the printed parent chain. Several values for one entry are separate records, joined by “and”; a condition that tells them apart may be missing. Identical values can stand only once. Like-named read-outs stand apart in the source and are kept apart here. Where no end group is shown, it is not given here.

Legend:
[1] = target: T1, human EGFL7 (EGFL7-CB-His) (human, UniProt Q9UHF1 23-273, limits assumed); assay: cell-based or functional assay
T1 sequence: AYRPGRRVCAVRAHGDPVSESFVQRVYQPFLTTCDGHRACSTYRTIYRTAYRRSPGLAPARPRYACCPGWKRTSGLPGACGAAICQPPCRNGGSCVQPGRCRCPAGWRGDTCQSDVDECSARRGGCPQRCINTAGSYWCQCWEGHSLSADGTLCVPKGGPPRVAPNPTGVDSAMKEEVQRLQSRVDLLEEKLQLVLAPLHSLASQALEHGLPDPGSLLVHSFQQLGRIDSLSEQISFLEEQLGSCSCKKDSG

[2] = target: T2, mouse EGFL7 (mEGFL7-CB-His) (mouse, UniProt Q9QXT5 22-275); assay: SPR (Biacore), IgG over immobilized mEGFL7-CB at 37 C;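 also: IgG injected as twofold series from 0.5 to 1000 nM, 3 min association and 3.5 min dissociation, reference flow cell subtracted, kinetics fitted to 1:1 Langmuir model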
T2 sequence: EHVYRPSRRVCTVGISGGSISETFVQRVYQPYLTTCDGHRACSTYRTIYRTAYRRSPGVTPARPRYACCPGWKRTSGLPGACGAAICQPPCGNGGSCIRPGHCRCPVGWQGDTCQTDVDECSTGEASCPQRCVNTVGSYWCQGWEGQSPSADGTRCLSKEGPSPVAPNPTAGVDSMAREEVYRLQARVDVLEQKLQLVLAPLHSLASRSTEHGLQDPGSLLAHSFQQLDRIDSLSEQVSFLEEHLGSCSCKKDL

p5 peptide of EGFL7 [3] = target: T3, p5 peptide of EGFL7 (human); assay: SPR (Biacore), IgG over immobilized P5 peptide at 37 C, n = 3
T3 construct: also called Peptide P5
T3 peptide: RACSTYRTIYRTA

[4] = target: T4, truncated human EGFL7 (residues 1-182) (human, UniProt Q9UHF1 24-182); assay: phage ELISA on truncated huEGFL7 immobilized on a microtiter plate
T4 construct: Expressed in CHO cells; The range as printed starts at Met 1; also called truncated EGFL7; truncated huEGFL7
T4 chain: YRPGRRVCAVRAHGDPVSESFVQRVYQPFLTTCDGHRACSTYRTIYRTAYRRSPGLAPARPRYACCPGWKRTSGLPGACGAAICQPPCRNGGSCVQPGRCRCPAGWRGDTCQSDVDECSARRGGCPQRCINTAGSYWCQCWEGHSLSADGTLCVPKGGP

[5] = target: T2, mouse EGFL7 (mEGFL7-CB-His); assay: cell-based or functional assay
p5 peptide of EGFL7 [6] = target: T3, p5 peptide of EGFL7; assay: SPR (Biacore), IgG over immobilized P5 peptide at 37 C;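 also: IgG variants injected at 0.5–1000 nM (2-fold series), 3 min association and 3.5 min dissociation, reference flow cell subtracted, kinetics fitted with a 1:1 Langmuir model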
[7] = target: T5, p2S (p2 peptide biotinylated through its free cysteine) (human, also: biotinylated (maleimide PEO2-biotin) on one of the two Cys, which one not given here); assay: SPR (Biacore), binding to p2S, KD relative to ch4F11
T5 construct: The peptide has two cysteines; also called b-p2S
T5 peptide: RPRYACCPGWKRT

[8] = target: T2, mouse EGFL7 (mEGFL7-CB-His); assay: cell-based or functional assay; remark: listed apart in the source
[9] = target: T1, human EGFL7 (EGFL7-CB-His); assay: cell-based or functional assay; remark: listed apart in the source
[10] = target: T4, truncated human EGFL7 (residues 1-182); assay: phage ELISA on truncated huEGFL7 immobilized on a microtiter plate

B1: 18F7.v6 IgG (antibody, V domains shown)
VH: EVQLVESGGGLVQPGGSLRLSCAASGYTFIDYYMNWVRQAPGKGLEWVGDINLDNGGTHYNQKFKGRFTISRDKSKNTAYLQMNSLRAEDTAVYYCAREGVYHDYDDYAMDYWGQGTLVTVSS
VL: DIQMTQSPSSLSASVGDRVTITCRTSQSLVHINGITYLHWYQQKPGKAPKLLIYRVSNRFSGVPSRFSGSGSGTDFTLTISSLQPEDFATYYCGQSTHVPLTFGQGTKVEIKR
notes: IgG; also called hu18F7.v6
IC50, HUVEC adhesion [left panel] [1]: 5.62 nM
Kd [2]: 0.408 nM
koff [2]: 2.04e-05 s⁻¹
kon [2]: 50000 M⁻¹ s⁻¹
Kd (p5 peptide of EGFL7 [3]): 3.21 nM
koff (p5 peptide of EGFL7 [3]): 0.000389 s⁻¹
kon (p5 peptide of EGFL7 [3]): 121000 M⁻¹ s⁻¹

B2: phage displaying 18F7-graft Fab (Fab, V domains shown)
VH: B1 VH with K74N, A79L
VL: B1 VL with G94S
notes: Monovalent Fab-g3 display on M13 phage; heavy chain VH-CH1 fused to P3; also called 18F7-graft phage
binding result [4]: binds

B3: 18F7.v6K IgG (antibody, V domains shown)
VH: B1 VH with G56S
VL: B1 VL with G34A
notes: IgG; also called hu18F7.v6k; h18F7.v6k
IC50, HUVEC adhesion [right panel] [5]: 6.37 µg/ml and 42 nM
Kd [2]: 1.6 nM
koff [2]: 4.54e-05 s⁻¹
kon [2]: 28000 M⁻¹ s⁻¹
Kd (p5 peptide of EGFL7 [6]): 5.2 nM
koff (p5 peptide of EGFL7 [6]): 0.000662 s⁻¹
kon (p5 peptide of EGFL7 [6]): 127000 M⁻¹ s⁻¹

B4: 4F11.v17 IgG (antibody, V domains shown)
VH: EVQLVESGGGLVQPGGSLRLSCAASGHTFTTYGMSWVRQAPGKGLEWVGWINTHSGVPTYADDFKGRFTISLDNSKNTAYLQMNSLRAEDTAVYYCARLGSYAVDYWGQGTLVTVSS
VL: DIQMTQSPSSLSASVGDRVTITCKASQSVDYSGDSYMSWYQQKPGKAPKLLIYGASYRESGVPSRFSGSGSGTDFTLTISSLQPEDFATYYCQQNNEEPYTFGQGTKVEIKR
notes: IgG; Library 1 framework; also called hu4F11.v17
Fold change in KD variant/(chimera) [7]: 0.93 fold
IC50 (read off the curve), HUVEC adhesion [8]: ~10 µg/mL
Cell Adhesion Assay (human EGFL7) Variant/ch4F11 (fold) [9]: 0.86 fold

B5: phage displaying 4F11.v1 Fab (Fab, V domains shown)
VH: B4 VH with L72R, A79L, Y102S
VL: B4 VL with S32D, Y57N, R58L, E98D
notes: Monovalent Fab-g3 display on M13 phage; heavy chain VH-CH1 fused to minor coat protein P3; also called 4F11.v1 phage; 4F11-graft Fab on phage
binding result [10]: binds

B6: 4F11.v22 IgG (antibody, V domains shown)
VH: B4 VH with V2I, V48M, N77S, Y95F
VL: B4 VL
notes: IgG; Library 2 framework
Fold change in KD variant/(chimera) [7]: 1 fold
Cell Adhesion Assay (human EGFL7) Variant/ch4F11 (fold) [9]: 0.81 fold
